Source: publication PMC5702341, “Identification of Antibody and Small Molecule Antagonists of Ferroportin-Hepcidin Interaction” (Frontiers in Pharmacology, 2017)
Where a SMILES comes first, the peptide text is derived from it. Bridges are numbered along the chain shown (N, C = ends). Side-chain parts run from the residue outwards. The star is where a group is joined. X1 = Nc1ccc2c(c1)Oc1cc(N)ccc1C21OC(=O)c2cc(C(=O)*)ccc21; Ahx = NCCCCCC(=O)O

Experiments:
[1] = system: FPN (T-REx/FPN-V5 cells); assay: RhoG-hepcidin binding and displacement at 0°C on FPN-expressing cells; assay type: cell-based, human; settings: 2 h on ice, then 10X unlabeled hepcidin for 2 h on ice
Procedure: To verify this work, RhoG-hepcidin was incubated with either uninduced or induced cells at 0°C. Contrary to the previous report, RhoG-hepcidin bound to FPN at this low temperature. To assess the reversibility of hepcidin binding to FPN, we incubated FPN-expressing cells with RhoG-hepcidin at 0°C to prevent internalization; we then added excess unlabeled hepcidin to determine if the labeled hepcidin could be displaced. […] We confirmed that FPN was not internalized using antibody 45D8 (Figure 11A).
(A) T-REx™/FPN-V5 cells were allowed to equilibrate on ice for 15 min prior to addition of RhoG-hepcidin for 2 h on ice; 10X unlabeled hepcidin was added for 2 additional hours on ice. FPN was detected with Ab 45D8; scale bar = 20 μm. (B) Non-glycosylated FPN binds hepcidin and internalizes. T-REx™/FPN-V5 cells were treated ± 0.3 μg/ml tunicamycin (Tm) for 18 h, followed by treatment with 500 nM hepcidin (Hepc) for 5 h. Blot was probed with anti-V5 Ab for FPN detection and anti-cyclophilin as loading control. (C) Induced HEK-FPN-V5 cells were treated ± 0.25 μg/ml tunicamycin (Tm) for 18 h, followed by RhoG-hepcidin for 3 h; uptake was quantitated by cellular imaging (N = 4, mean ± sd).

[2] = molecular target: ferroportin (T-REx/FPN-V5 cells) (Homo sapiens, UniProt Q9NP59); assay: cell-based
Procedure: Cells were plated in 96-well Poly-D-Lysine coated plates (BD) at 50,000 cells/well and induced overnight with 10 ng/ml doxycycline (Clontech). […] FPN staining was completed as described above except that the incubations were performed at room temperature. […] Nuclei were stained with Hoechst dye. Cell surface or total FPN or intracellular hepcidin was quantitated with cellular imaging. Uninduced (non-FPN-expressing) cells served as a negative control. Images were captured from Arrayscan™ VTI (Thermo Fisher) equipped with Zeiss microscope optics and Hamamatsu ORCA®-ER CCD camera. Images were captured with 10X or 20X objectives and analyzed with the Spot Detector bioapplication. A minimum of 300 cells per well were analyzed for each condition.
T-REx™/FPN-V5 were plated in 384-well Poly-D-Lysine coated plates (BD) at 15,000 cell/well and induced overnight as described for RhoG-hepcidin uptake assay. […] Plates were scanned on Thermo Fisher ArrayScan™ HCS Reader and analyzed with Spot Detector application. A minimum of 300 cells/well were analyzed.
Alanine mutant peptides were tested for activity in both BLA and ferroportin internalization assays.
Using these antibodies, it was possible to develop a quantitative cellular imaging assay that measured hepcidin-induced FPN internalization. […]

[3] = molecular target: human ferroportin with V5 tag, on doxycycline-induced T-REx/FPN-V5 cells (human) (UniProt Q9NP59)
[4] = molecular target: endogenous human ferroportin on T47D cells (human (endogenous in T47D)) (UniProt Q9NP59)
[5] = molecular target: human ferroportin with V5 tag, on doxycycline-induced T-REx/FPN-V5 cells (human) (UniProt Q9NP59); remark: listed apart in the source
[6] = molecular target: T1, ferroportin-hepcidin interaction (T-REx/FPN-V5 cells) (Homo sapiens, UniProt Q9NP59); assay: RhoG-hepcidin uptake assay; assay type: cell-based; settings: compound 1 h prior to 250 nM RhoG-hepcidin for 1 h; read-out: IC50 inhibition of RhoG-hepcidin uptake
T1 sequence (Q9NP59 1-571): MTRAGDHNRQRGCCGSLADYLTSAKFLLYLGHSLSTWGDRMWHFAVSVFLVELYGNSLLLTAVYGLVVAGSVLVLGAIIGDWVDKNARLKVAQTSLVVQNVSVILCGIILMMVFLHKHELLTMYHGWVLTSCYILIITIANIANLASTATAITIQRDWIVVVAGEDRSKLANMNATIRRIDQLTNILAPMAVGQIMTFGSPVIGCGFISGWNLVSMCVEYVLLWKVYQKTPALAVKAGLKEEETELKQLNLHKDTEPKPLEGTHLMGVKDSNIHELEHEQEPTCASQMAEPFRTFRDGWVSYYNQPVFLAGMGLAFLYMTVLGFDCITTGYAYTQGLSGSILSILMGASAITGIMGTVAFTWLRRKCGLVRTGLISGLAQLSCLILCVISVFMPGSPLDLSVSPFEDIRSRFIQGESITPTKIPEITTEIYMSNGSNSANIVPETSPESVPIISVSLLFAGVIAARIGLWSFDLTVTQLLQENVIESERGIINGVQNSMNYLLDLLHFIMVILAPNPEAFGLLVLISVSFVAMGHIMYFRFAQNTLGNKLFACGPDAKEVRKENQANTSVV
T1 sequence (P81172 60-84 partner): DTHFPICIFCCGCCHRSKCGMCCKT
Excerpt: (§1) In an effort to identify small molecule inhibitors of hepcidin-induced FPN internalization, we ran a small molecule screen using the cell-based iron response reporter assay described above. […] Molecules that prevented intracellular iron accumulation were further tested in the RhoG-hepcidin uptake and FPN internalization assays.

[7] = molecular target: T1, ferroportin-hepcidin interaction (T-REx/FPN-V5 cells); assay: RhoG-hepcidin reversibility (washout) assay; assay type: cell-based; settings: for IC50: cells treated 1 h, washed to remove unbound compound, then RhoG-hepcidin, N = 3, read-out: IC50 blocking RhoG-hepcidin binding/uptake after washout
Procedure: T-REx™/FPN-V5 cells plated in 96-well Packard ViewPlates at 50,000 cells/well and induced overnight as described for the BLA screening assay. […] As a control, cells were treated identically except that compound was not removed before addition of RhoG-hepcidin. Cells were fixed with 4% formaldehyde (Thermo Fisher) and stained with Hoechst nuclear dye. RhoG-Hepc uptake per cell was measured by cellular imaging.
as §1
(A) T-REx™/FPN-V5 cells were induced overnight and treated with small molecules for 1 h prior to addition of RhoG-hepc for 2 h. Cells were fixed/permeabilized and stained with Ab 38G6; blue = nuclei, green = RhoG-hepcidin, red = FPN. Scale bar = 20 μm.
Reactivity with cell-based, folded FPN was assessed by the hepcidin uptake assay (Figure 9C); reactivity with the linear peptide was assessed by mass spectrometry (Figure 10A).

[8] = molecular target: human ferroportin with V5 tag, on doxycycline-induced T-REx/FPN-V5 cells (human) (UniProt Q9NP59); remark: listed apart in the source

Compound | FPN internalization assay EC50 (surface FPN by cellular imaging, T-REx/FPN-V5 cells) [3] [nM] | Iron response assay EC50 (β-lactamase reporter under the ferritin IRE, T-REx/FPN-V5/IRE-BLA cells) [3] [nM] | also measured
CC[C@H](C)[C@@H]1NC(=O)[C@@H](NC(=O)[C@@H](NC(=O)[C@@H]2CCCN2C(=O)[C@H](Cc2ccccc2)NC(=O)[C@H](Cc2c[nH]cn2)NC(=O)[C@@H](NC(=O)[C@@H](N)CC(=O)O)[C@@H](C)O)[C@@H](C)CC)CSSC[C@@H](C(=O)N[C@@H](CCCCN)C(=O)N[C@H](C(=O)O)[C@@H](C)O)NC(=O)[C@@H]2CSSC[C@@H]3NC(=O)[C@@H]4CSSC[C@H](NC(=O)[C@H](Cc5ccccc5)NC1=O)C(=O)N[C@@H](CSSC[C@H](NC(=O)[C@H](CCCCN)NC(=O)[C@H](CCCCNC(=O)CCCCCNC(=O)c1ccc5c(c1)C(=O)OC51c5ccc(N)cc5Oc5cc(N)ccc51)NC(=O)[C@H](CCCNC(=N)N)NC(=O)[C@H](Cc1c[nH]cn1)NC3=O)C(=O)NCC(=O)N[C@@H](CCSC)C(=O)N2)C(=O)NCC(=O)N4 [RhoG-hepcidin, [Lys17(N^ε-Rhodamine green amino hexanoyl)]hepcidin] (H-DTHFPICIFCCGCCHRK([Ahx-X1])KCGMCCKT-OH; disulfide 7-23, 10-13, 11-19, 14-22 (inferred); C-terminus assumed) | – | – | reversibility of binding to FPN [1]: reversible; EC50 [2]: ~30 nM
hepcidin S17A (peptide) | 50 | 66 | –
hepcidin H3A (peptide) | 308 | 298 | –
hepcidin K18A (peptide) | 12 | 13 | –
hepcidin I6A (peptide) | 247 | 634 | –
hepcidin P5A (peptide) | 474 | 180 | –
O=S(=O)(c1ccc(Cl)cc1)c1cnc2ccccc2n1 [Compound 1, 2-[(4-chlorophenyl)sulfonyl]quinoxaline] | – | – | IC50 [6]: 141 nM; inhibition at 100 µM ([7]; 100 μM compound, 1 h, in cells, read-out: inhibition of hepcidin uptake): 100%; IC50 [7]: 100 nM
hepcidin H15A (peptide) | 10 | 12 | –
hepcidin G20A (peptide) | 309 | 288 | –
hepcidin D1A (peptide) | 185 | 144 | –
hepcidin K24A (peptide) | 267 | 266 | –
[Lys17(N-epsilon-Rhodamine green amino hexanoyl)]hepcidin (peptide) | – | – | EC50 of FPN internalization, T-REx/FPN-V5 cells, 3 h, cellular imaging with Ab 38C8 [8]: 30 nM
NC(=O)CI [iodoacetamide, reference compound] | – | – | inhibition of hepcidin uptake ([7]; 100 μM compound, 1 h, in cells): ~ 50%; IC50 [7]: 86000 nM

The next lines start with results.

FPN internalization assay EC50 (surface FPN by cellular imaging, T-REx/FPN-V5 cells) [3] [nM] | Iron response assay EC50 (β-lactamase reporter under the ferritin IRE, T-REx/FPN-V5/IRE-BLA cells) [3] [nM] | Compound | also measured
51 | 63 | synthetic human hepcidin (wild type, unlabeled) (peptide) | EC50 of hepcidin-induced FPN internalization, T47D cells, 6 h, surface FPN on live cells by cellular imaging with Ab 38C8 [4]: 13 nM; EC50 of hepcidin-induced FPN internalization, T-REx/FPN-V5 cells, 6 h, surface FPN on live cells by cellular imaging with Ab 38C8 [5]: 11 nM
250 | 392 | hepcidin F9A (peptide) | –
> 3600 | > 3600 | hepcidin I8A (peptide) | –
29 | 29 | hepcidin T2A (peptide) | –
39 | 53 | hepcidin T25A (peptide) | –
56 | 57 | hepcidin R16A (peptide) | –
212 | 107 | hepcidin G12A (peptide) | –
162 | 112 | hepcidin M21A (peptide) | –
> 3600 | > 3600 | hepcidin F4A (peptide) | –
